Assay results taken from US20180355053A1 (Stanford University, published 2018).
One block for each binder: values may come before it.

How the values were obtained:
[1] = target: T1, human CD47 tagged with mouse Fc (human, UniProt Q08722 19-139, limits assumed); experiment: ELISA on immobilized recombinant CD47
T1 construct: also called recombinant CD47 antigen
Method: FIG. 7: SIRPα-rituximab bispecific reagents bind to CD47 with reduced affinity relative to anti-CD47 and other bispecific antibody formats. Binding of the indicated antibodies to the recombinant CD47 antigen was measured by ELISA over a range of concentrations. Immobilized human CD47 tagged with mouse Fc was used to capture the indicated antibodies prior to detection with HRP-conjugated antibody directed against the human kappa light chain. Data are representative of three experiments performed in triplicate.

[2] = target: T2, human CD20 (human, UniProt P11836 1-297); experiment: flow cytometry on CD20+CD47- YB2/0 cells
T2 construct: whole, on cells; also called MS4A1
T2 sequence (looked up): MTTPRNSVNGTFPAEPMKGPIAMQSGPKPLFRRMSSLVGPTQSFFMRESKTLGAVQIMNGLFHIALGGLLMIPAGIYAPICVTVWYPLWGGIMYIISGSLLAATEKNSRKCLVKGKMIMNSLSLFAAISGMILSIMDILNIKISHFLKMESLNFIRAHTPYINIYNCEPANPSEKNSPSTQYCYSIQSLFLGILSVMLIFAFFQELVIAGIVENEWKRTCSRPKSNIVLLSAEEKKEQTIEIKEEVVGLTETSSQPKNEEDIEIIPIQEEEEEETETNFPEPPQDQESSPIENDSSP
Text: FIG. 3A-3B: SIRPα-rituximab bispecific reagents bind to CD20 on the cell surface. The indicated antibodies were used to stain rat YB2/0 cells engineered to express human CD20, but not human CD47 (CD20+CD47−) prior to detection with anti-human secondary antibody by flow cytometry. 2B8=anti-CD20, B6H12=anti-CD47.

[3] = target: T3, human CD47 (human, UniProt Q08722 19-323); experiment: flow cytometry on CD20-CD47+ YB2/0 cells
T3 construct: whole, on cells
Text: FIG. 5A-5B: SIRPα-rituximab bispecific reagents bind to CD47 on the cell surface with reduced affinity relative to anti-CD47. The indicated antibodies were used to stain rat YB2/0 cells engineered to express human CD47, but not human CD20 (CD20−CD47+) prior to detection with fluorescently tagged anti-human secondary antibody by flow cytometry. 2B8=anti-CD20, B6H12=anti-CD47.

[4] = target: T2, human CD20; experiment: flow cytometry competition with 10 µg/ml DyLight 488 anti-CD20 on CD20+CD47- YB2/0 cells
Text: FIG. 4: SIRPα-rituximab bispecific reagents bind to CD20 with similar affinity as parental antibody.

binding result [1]: binds
binding result [2]: binds
binding result [3]: binds
B1: CD20-2GL-SIRPα (bispecific antibody, human IgG1, kappa)
heavy: not shown
light: QIVLSQSPAILSASPGEKVTMTCRASSSVSYIHWFQQKPGSSPKPWIYATSNLASGVPVRFSGSGSGTSYSLTISRVEAEDAATYYCQQWTSNPPTFGGGTKLEIKRTVAAPSVFIFPPSDEQLKSGTASVVCLLNNFYPREAKVQWKVDNALQSGNSQESVTEQDSKDSTYSLSSTLTLSKADYEKHKVYACEVTHQGLSSPVTKSFNRGEC
notes: Wild type human SIRPα N-terminal Ig fold fused to the C terminus of the rituximab heavy chain through (GGGGS)2; also called CD20-2GL-SIRPα HC; SIRPabody

binding result [1]: binds
binding result [2]: binds
binding result [3]: binds
B2: CD20-4GL-SIRPα (bispecific antibody, human IgG1, kappa)
heavy: not shown
light: B1 light
notes: Wild type human SIRPα N-terminal Ig fold fused to the C terminus of the rituximab heavy chain through (GGGGS)4; also called SIRPabody; SIRPα-rituximab bispecific reagent

binding result [1]: binds
binding result [3]: binds
binding result [4]: binds
B3: SIRPα-CD20 (bispecific antibody, human IgG1, kappa)
heavy: not shown
light: B1 light
notes: also called SIRPabody; SIRPα-rituximab bispecific reagent
